Test results as given in publication PMC9482650, “Quantitative fragmentomics allow affinity mapping of interactomes” (Nature Communications, 2022).

What was measured:
Assay in all cases: holdup assay
Parameters in all cases: key: below the threshold = too weak to quantify, mostly under pKd 3.1 to 4
[1] = biological target: DLG2_2, Q15700
[2] = biological target: DLG1_3, Q12959
[3] = biological target: T1, PCLO, Q9Y6V0
T1 sequence (Q9Y6V0 4491-4600, limits assumed, looked up): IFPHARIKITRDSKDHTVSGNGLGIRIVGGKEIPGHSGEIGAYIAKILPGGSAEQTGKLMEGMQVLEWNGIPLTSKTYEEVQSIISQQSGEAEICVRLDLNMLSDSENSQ

[4] = biological target: T2, SNTB1, Q13884
T2 sequence (Q13884 107-205, limits assumed, looked up): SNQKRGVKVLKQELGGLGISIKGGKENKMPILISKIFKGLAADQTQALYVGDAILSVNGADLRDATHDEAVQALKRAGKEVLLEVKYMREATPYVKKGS

[5] = biological target: T3, ARHGAP21, Q5T5U3
T3 sequence (Q5T5U3 45-169, limits assumed, looked up): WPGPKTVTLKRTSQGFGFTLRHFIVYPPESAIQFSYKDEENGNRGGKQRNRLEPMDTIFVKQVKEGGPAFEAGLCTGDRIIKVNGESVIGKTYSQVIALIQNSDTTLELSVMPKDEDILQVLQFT

[6] = biological target: T4, LIN7A, O14910
T4 sequence (O14910 103-200, limits assumed, looked up): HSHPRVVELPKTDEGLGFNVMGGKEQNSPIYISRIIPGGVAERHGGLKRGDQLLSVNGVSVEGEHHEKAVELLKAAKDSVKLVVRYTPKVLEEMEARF

[7] = biological target: T5, RAPGEF6, Q8TEU7
T5 sequence (Q8TEU7 525-625, limits assumed, looked up): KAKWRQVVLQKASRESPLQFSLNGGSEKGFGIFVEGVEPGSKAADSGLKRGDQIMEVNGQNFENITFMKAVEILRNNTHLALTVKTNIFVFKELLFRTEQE

[8] = biological target: GRIP2_7, Q9C0E4
GRIP2_7, Q9C0E4, sequence (Q9C0E4 934-1023): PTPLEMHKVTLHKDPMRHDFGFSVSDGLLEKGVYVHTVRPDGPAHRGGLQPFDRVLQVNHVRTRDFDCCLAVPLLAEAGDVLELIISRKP

[9] = biological target: GOPC, Q9HD26
[10] = biological target: DLG1_2, Q12959
DLG1_2, Q12959, sequence (Q12959 314-412): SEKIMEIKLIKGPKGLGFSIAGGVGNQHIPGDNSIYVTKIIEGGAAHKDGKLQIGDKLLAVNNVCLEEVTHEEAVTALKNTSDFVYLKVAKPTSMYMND

[11] = biological target: T6, SYNJ2BP, P57105
T6 sequence (P57105 8-110, limits assumed, looked up): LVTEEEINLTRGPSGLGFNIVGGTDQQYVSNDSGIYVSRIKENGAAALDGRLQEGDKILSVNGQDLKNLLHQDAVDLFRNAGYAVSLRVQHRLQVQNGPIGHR

[12] = biological target: GIPC2, Q8TF65
GIPC2, Q8TF65, sequence (Q8TF65 112-203): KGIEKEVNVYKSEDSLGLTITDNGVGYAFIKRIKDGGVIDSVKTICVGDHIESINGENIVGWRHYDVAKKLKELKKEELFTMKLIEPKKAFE

[13] = biological target: T7, PARD3B_1, Q8TEW8
T7 sequence (Q8TEW8 196-299, limits assumed, looked up): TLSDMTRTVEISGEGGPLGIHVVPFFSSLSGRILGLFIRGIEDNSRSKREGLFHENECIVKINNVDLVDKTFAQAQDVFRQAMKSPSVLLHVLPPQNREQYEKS

[14] = biological target: FRMPD2_2, Q68DX3
FRMPD2_2, Q68DX3, sequence (Q68DX3 944-1038): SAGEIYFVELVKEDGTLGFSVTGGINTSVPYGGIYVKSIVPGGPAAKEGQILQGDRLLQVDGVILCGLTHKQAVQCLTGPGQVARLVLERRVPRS

[15] = biological target: DLG4_3, P78352
DLG4_3, P78352, sequence (P78352 306-403): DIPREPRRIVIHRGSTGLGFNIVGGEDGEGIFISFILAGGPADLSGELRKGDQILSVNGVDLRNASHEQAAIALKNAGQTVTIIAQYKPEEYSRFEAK

[16] = biological target: T8, SIPA1L2, Q9P2F8
T8 sequence (Q9P2F8 945-1036, limits assumed, looked up): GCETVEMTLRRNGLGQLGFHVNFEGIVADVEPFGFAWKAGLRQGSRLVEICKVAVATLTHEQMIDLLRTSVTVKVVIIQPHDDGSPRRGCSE

[17] = biological target: DLG2_3, Q15700
[18] = biological target: Inadl_10, Q8NI35
Inadl_10, Q8NI35, sequence (Q8NI35 1673-1763): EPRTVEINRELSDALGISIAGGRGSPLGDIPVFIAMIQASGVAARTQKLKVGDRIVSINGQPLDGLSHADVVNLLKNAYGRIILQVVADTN

[19] = biological target: T9, MPDZ_5, O75970
T9 sequence (O75970 695-796, limits assumed, looked up): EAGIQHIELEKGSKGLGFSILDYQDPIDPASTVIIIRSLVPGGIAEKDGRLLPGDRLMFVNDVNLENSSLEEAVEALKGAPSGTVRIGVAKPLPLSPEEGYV

[20] = biological target: GRIP2_3, Q9C0E4
GRIP2_3, Q9C0E4, sequence (Q9C0E4 238-339): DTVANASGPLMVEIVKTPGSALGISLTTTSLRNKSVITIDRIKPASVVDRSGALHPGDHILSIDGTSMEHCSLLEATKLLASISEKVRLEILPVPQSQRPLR

[21] = biological target: GRID2IP_1, A4D2P6
GRID2IP_1, A4D2P6, sequence (A4D2P6 1-87): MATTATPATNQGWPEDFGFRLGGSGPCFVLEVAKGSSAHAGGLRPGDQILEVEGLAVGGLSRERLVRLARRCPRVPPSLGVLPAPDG

[22] = biological target: T10, LRRC7, Q96NW7
T10 sequence (Q96NW7 1440-1537, limits assumed, looked up): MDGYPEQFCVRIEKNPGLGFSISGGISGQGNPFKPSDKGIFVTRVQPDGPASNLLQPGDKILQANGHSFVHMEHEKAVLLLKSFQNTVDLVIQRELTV

[23] = biological target: HTRA1, Q92743
HTRA1, Q92743, sequence (Q92743 360-477): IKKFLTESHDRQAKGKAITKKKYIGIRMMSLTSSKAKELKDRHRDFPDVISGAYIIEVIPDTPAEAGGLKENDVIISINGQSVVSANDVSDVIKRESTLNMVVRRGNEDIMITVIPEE

[24] = biological target: T11, PDZD7_3, Q9H5P4
T11 sequence (Q9H5P4 857-944, limits assumed, looked up): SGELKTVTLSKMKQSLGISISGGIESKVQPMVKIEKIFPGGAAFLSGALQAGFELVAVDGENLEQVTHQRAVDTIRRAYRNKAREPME

[25] = biological target: T12, PTPN13_1, Q12923
T12 sequence (Q12923 1088-1188, limits assumed, looked up): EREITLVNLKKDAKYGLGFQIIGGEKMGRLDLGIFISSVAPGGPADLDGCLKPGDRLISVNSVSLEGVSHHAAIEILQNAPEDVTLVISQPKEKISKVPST

[26] = plain residues with an end cap or a label only (N-terminal biotin on a linker: ttds)
[27] = plain residues with an end cap or a label only (N-terminal biotin on a linker: none)
[28] = plain residues with an end cap or a label only (N-terminal biotin on a linker: ado-ado)

DLG1_3, Q12959, sequence (Q12959 457-571): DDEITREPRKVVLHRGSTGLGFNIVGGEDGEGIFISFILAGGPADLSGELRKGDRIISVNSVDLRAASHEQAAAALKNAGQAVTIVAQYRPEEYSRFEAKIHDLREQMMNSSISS

TGDTLEKFVEGL [CBP, Q92793]
pKd [1, 26]: below the threshold | pKd [2, 26]: below the threshold | pKd [3, 26]: below the threshold | pKd [4, 26]: below the threshold | pKd [5, 26]: below the threshold | pKd [6, 26]: below the threshold | pKd [7, 26]: below the threshold | pKd [8, 26]: below the threshold | pKd [9, 26]: below the threshold | pKd [10, 26]: below the threshold | pKd [11, 26]: 3.55 | pKd [12, 26]: below the threshold | pKd [13, 26]: below the threshold | pKd [14, 26]: below the threshold | pKd [15, 26]: below the threshold | pKd [16, 26]: below the threshold | pKd [17, 26]: below the threshold | pKd [18, 26]: below the threshold | pKd [19, 26]: below the threshold | pKd [20, 26]: below the threshold | pKd [21, 26]: below the threshold | pKd [22, 26]: below the threshold | pKd [23, 26]: below the threshold | pKd [24, 26]: below the threshold | pKd [25, 26]: below the threshold

HRTCYLVTQL [ASIC3, Q9UHC3]
pKd [1, 26]: 3.93 | pKd [2, 26]: 4.56 | pKd [3, 26]: below the threshold | pKd [4, 26]: 4.07 | pKd [5, 26]: 3.47 | pKd [6, 26]: below the threshold | pKd [7, 26]: 3.49 | pKd [8, 26]: 3.48 | pKd [9, 26]: 4.79 | pKd [10, 26]: 4.12 | pKd [11, 26]: 4.72 | pKd [12, 26]: below the threshold | pKd [13, 26]: 3.95 | pKd [14, 26]: 3.76 | pKd [15, 26]: 3.6 | pKd [16, 26]: below the threshold | pKd [17, 26]: 4.17 | pKd [18, 26]: 3.84 | pKd [19, 26]: 3.4 | pKd [20, 26]: below the threshold | pKd [21, 26]: below the threshold | pKd [22, 26]: 4.04 | pKd [23, 26]: 4.39 | pKd [24, 26]: 5.47 | pKd [25, 26]: 3.36

DSKPPLPPDEWV [MERS-E, K9N5R3]
pKd [1, 27]: below the threshold | pKd [2, 27]: 3.5 | pKd [3, 27]: below the threshold | pKd [4, 27]: 3.8 | pKd [5, 27]: 3.76 | pKd [6, 27]: below the threshold | pKd [7, 27]: below the threshold | pKd [8, 27]: 3.86 | pKd [9, 27]: 3.92 | pKd [10, 27]: 3.57 | pKd [11, 27]: 3.73 | pKd [12, 27]: below the threshold | pKd [13, 27]: 3.5 | pKd [14, 27]: below the threshold | pKd [15, 27]: 3.64 | pKd [16, 27]: below the threshold | pKd [17, 27]: below the threshold | pKd [18, 27]: below the threshold | pKd [19, 27]: below the threshold | pKd [20, 27]: 3.52 | pKd [21, 27]: 3.57 | pKd [22, 27]: 4.4 | pKd [23, 27]: 4.34 | pKd [24, 27]: below the threshold | pKd [25, 27]: below the threshold

RGGFGRQTQI [NCBP2L, A6PVI3]
pKd [1, 28]: 4.65 | pKd [2, 28]: 4.24 | pKd [3, 28]: below the threshold | pKd [4, 28]: 4.51 | pKd [5, 28]: below the threshold | pKd [6, 28]: below the threshold | pKd [7, 28]: below the threshold | pKd [8, 28]: below the threshold | pKd [9, 28]: 4.05 | pKd [10, 28]: 4.92 | pKd [11, 28]: 4.18 | pKd [12, 28]: below the threshold | pKd [13, 28]: below the threshold | pKd [14, 28]: below the threshold | pKd [15, 28]: 4.17 | pKd [16, 28]: below the threshold | pKd [17, 28]: 4.54 | pKd [18, 28]: below the threshold | pKd [19, 28]: below the threshold | pKd [20, 28]: below the threshold | pKd [21, 28]: below the threshold | pKd [22, 28]: below the threshold | pKd [23, 28]: below the threshold | pKd [24, 28]: 4.38 | pKd [25, 28]: 3.71
